The subject of data set [1] is HeLa Kyoto. In words: solubility in G1/S (NP-40 vs SDS abundance) (log2 ratio); higher = more soluble. Conditions: cell cycle stage: G1/S.
The subject of data set [2] is HeLa Kyoto. Put plainly: thermal stability score vs G1/S (z-score of summed log2 fold changes over temperatures); higher = more thermally stable than in G1/S.
The subject of data set [3] is HeLa Kyoto. Put plainly: solubility change mitosis vs G1/S (difference of NP-40 vs SDS log2 ratios) (log2 ratio difference); higher = more soluble in mitosis.
For data set [4], the system named is HeLa Kyoto. Put plainly: melting temperature (median over replicates), in situ; higher = more thermally stable.
Where [5] appears, read: cell cycle stage: early G1 (4.5 h after nocodazole release).

Data on six sequences can be found in the supplement of paper PMC5998384.
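Throughout, for melting temperature (median over replicates), in situ: HeLa Kyoto cells synchronized by double thymidine or nocodazole block, proteins quantified by TMT10plex mass spectrometry, three independent biological replicates.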
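Throughout, for solubility change mitosis vs G1/S (difference of NP-40 vs SDS log2 ratios): synchronized HeLa Kyoto cells (double thymidine block for G1/S, nocodazole release for mitosis), protein amounts in NP-40 versus SDS lysates quantified by mass spectrometry, three biological replicates.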
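Throughout, for solubility in G1/S (NP-40 vs SDS abundance): HeLa Kyoto cells arrested at G1/S by double thymidine block, proteins quantified by TMT10plex mass spectrometry in mild NP-40 versus SDS extracts, three biological replicates.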
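Throughout, for thermal stability score vs G1/S (z-score of summed log2 fold changes over temperatures): synchronized HeLa Kyoto cells, proteins quantified by TMT10plex mass spectrometry, three biological replicates, mitosis taken 0.5 h after nocodazole release, G1/S directly after double thymidine block.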

Regarding “MDRRSMGETESGDAFLDLKKPPASKCPHRYTKEELLDIKELPHSKQRPSCLSEKYDSDGVWDPEKWHASLYPASGRSSPVESLKKELDTDRPSLVRRIVDPRERVKEDDLDVVLSPQRRSFGGGCHVTAAVSSRRSGSPLEKDSDGLRLLGGRRIGSGRIISARTFEKDHRLSDKDLRDLRDRDRERDFKDKRFRREFGDSKRVFGERRRNDSYTEEEPEWFSAGPTSQSETIELTGFDDKILEEDHKGRKRTRRRTASVKEGIVECNGGVAEEDEVEVILAQEPAADQEVPRDAVLPEQSPGDFDFNEFFNLDKVPCLASMIEDVLGEGSVSASRFSRWFSNPSRSGSRSSSLGSTPHEELERLAGLEQAILSPGQNSGNYFAPIPLEDHAENKVDILEMLQKAKVDLKPLLSSLSANKEKLKESSHSGVVLSVEEVEAGLKGLKVDQQVKNSTPFMAEHLEETLSAVTNNRQLKKDGDMTAFNKLVSTMKASGTLPSQPKVSRNLESHLMSPAEIPGQPVPKNILQELLGQPVQRPASSNLLSGLMGSLEPTTSLLGQRAPSPPLSQVFQTRAASADYLRPRIPSPIGFTPGPQQLLGDPFQGMRKPMSPITAQMSQLELQQAALEGLALPHDLAVQAANFYQPGFGKPQVDRTRDGFRNRQQRVTKSPAPVHRGNSSSPAPAASITSMLSPSFTPTSVIRKMYESKEKSKEEPASGKAALGDSKEDTQKASEENLLSSSSVPSADRDSSPTTNSKLSALQRSSCSTPLSQANRYTKEQDYRPKATGRKTPTLASPVPTTPFLRPVHQVPLVPHVPMVRPAHQLHPGLVQRMLAQGVHPQHLPSLLQTGVLPPGMDLSHLQGISGPILGQPFYPLPAASHPLLNPRPGTPLHLAMVQQQLQRSVLHPPGSGSHAAAVSVQTTPQNVPSRSGLPHMHSQLEHRPSQRSSSPVGLAKWFGSDVLQQPLPSMPAKVISVDELEYRQ [EIF4ENIF1]”, the “solubility in G1/S (log2)” value in data set [1] turned out to be 0.0256. In addition, the figures for the thermal stability score in data set [2] (setting [5]) and in data set [2] (cell cycle stage: mitosis) were -0.104 and 0.531, respectively. Also, the “solubility change mitosis (log2)” value in data set [3] is 0.0657. Also, the melting temperature in data set [4] (cell cycle stage: G1/S) was determined as 50.3 °C; in data set [4] (cell cycle stage: mitosis), 49.3 °C.

For “MDSLEEPQKKVFKARKTMRVSDRQQLEAVYKVKEELLKTDVKLLNGNHENGDLDPTSPLENMDYIKDKEEVNGIEEICFDPEGSKAEWKETPCILSVNVKNKQDDDLNCEPLSPHNITPEPVSKLPAEPVSGDPAPGDLDAGDPASGVLASGDSTSGDPTSSEPSSSDAASGDATSGDAPSGDVSPGDATSGDATADDLSSGDPTSSDPIPGEPVPVEPISGDCAADDIASSEITSVDLASGAPASTDPASDDLASGDLSSSELASDDLATGELASDELTSESTFDRTFEPKSVPVCEPVPEIDNIEPSSNKDDDFLEKNGADEKLEQIQSKDSLDEKNKADNNIDANEETLETDDTTICSDRPPENEKKVEEDIITELALGEDAISSSMEIDQGEKNEDETSADLVETINENVIEDNKSENILENTDSMETDEIIPILEKLAPSEDELTCFSKTSLLPIDETNPDLEEKMESSFGSPSKQESSESLPKEAFLVLSDEEDISGEKDESEVISQNETCSPAEVESNEKDNKPEEEEQVIHEDDERPSEKNEFSRRKRSKSEDMDNVQSKRRRYMEEEYEAEFQVKITAKGDINQKLQKVIQWLLEEKLCALQCAVFDKTLAELKTRVEKIECNKRHKTVLTELQAKIARLTKRFEAAKEDLKKRHEHPPNPPVSPGKTVNDVNSNNNMSYRNAGTVRQMLESKRNVSESAPPSFQTPVNTVSSTNLVTPPAVVSSQPKLQTPVTSGSLTATSVLPAPNTATVVATTQVPSGNPQPTISLQPLPVILHVPVAVSSQPQLLQSHPGTLVTNQPSGNVEFISVQSPPTVSGLTKNPVSLPSLPNPTKPNNVPSVPSPSIQRNPTASAAPLGTTLAVQAVPTAHSIVQATRTSLPTVGPSGLYSPSTNRGPIQMKIPISAFSTSSAAEQNSNTTPRIENQTNKTIDASVSKKAADSTSQCGKATGSDSSGVIDLTMDDEESGASQDPKKLNHTPVSTMSSSQPVSRPLQPIQPAPPLQPSGVPTSGPSQTTIHLLPTAPTTVNVTHRPVTQVTTRLPVPRAPANHQVVYTTLPAPPAQAPLRGTVMQAPAVRQVNPQNSVTVRVPQTTTYVVNNGLTLGSTGPQLTVHHRPPQVHTEPPRPVHPAPLPEAPQPQRLPPEAASTSLPQKPHLKLARVQSQNGIVLSWSVLEVDRSCATVDSYHLYAYHEEPSATVPSQWKKIGEVKALPLPMACTLTQFVSGSKYYFAVRAKDIYGRFGPFCDPQSTDVISSTQSS [ATF7IP]”, the “solubility in G1/S (log2)” value in data set [1] worked out at 0.0405. For the same sequence, the thermal stability score turned out to be 0.103 in data set [2] (setting [5]) and 1.25 in data set [2] (cell cycle stage: mitosis). Besides, the “solubility change mitosis (log2)” value in data set [3] was -0.146. In addition, the melting temperature in data set [4] (cell cycle stage: G1/S) came out at 49 °C; in data set [4] (cell cycle stage: mitosis) it was 49.8 °C.

Turning to “MDSNTAPLGPSCPQPPPAPQPQARSRLNATASLEQERSERPRAPGPQAGPGPGVRDAAAPAEPQAQHTRSRERADGTGPTKGDMEIPFEEVLERAKAGDPKAQTEVGKHYLQLAGDTDEELNSCTAVDWLVLAAKQGRREAVKLLRRCLADRRGITSENEREVRQLSSETDLERAVRKAALVMYWKLNPKKKKQVAVAELLENVGQVNEHDGGAQPGPVPKSLQKQRRMLERLVSSESKNYIALDDFVEITKKYAKGVIPSSLFLQDDEDDDELAGKSPEDLPLRLKVVKYPLHAIMEIKEYLIDMASRAGMHWLSTIIPTHHINALIFFFIVSNLTIDFFAFFIPLVIFYLSFISMVICTLKVFQDSKAWENFRTLTDLLLRFEPNLDVEQAEVNFGWNHLEPYAHFLLSVFFVIFSFPIASKDCIPCSELAVITGFFTVTSYLSLSTHAEPYTRRALATEVTAGLLSLLPSMPLNWPYLKVLGQTFITVPVGHLVVLNVSVPCLLYVYLLYLFFRMAQLRNFKGTYCYLVPYLVCFMWCELSVVILLESTGLGLLRASIGYFLFLFALPILVAGLALVGVLQFARWFTSLELTKIAVTVAVCSVPLLLRWWTKASFSVVGMVKSLTRSSMVKLILVWLTAIVLFCWFYVYRSEGMKVYNSTLTWQQYGALCGPRAWKETNMARTQILCSHLEGHRVTWTGRFKYVRVTDIDNSAESAINMLPFFIGDWMRCLYGEAYPACSPGNTSTAEEELCRLKLLAKHPCHIKKFDRYKFEITVGMPFSSGADGSRSREEDDVTKDIVLRASSEFKSVLLSLRQGSLIEFSTILEGRLGSKWPVFELKAISCLNCMAQLSPTRRHVKIEHDWRSTVHGAVKFAFDFFFFPFLSAA [WFS1]”, the “solubility in G1/S (log2)” value in data set [1] was found to be 0.109. Besides, the thermal stability score in data set [2] (setting [5]) was 2.34; in data set [2] (cell cycle stage: mitosis), 3.05. Further, the “solubility change mitosis (log2)” value in data set [3] was -0.183. Also, the melting temperature in data set [4] (cell cycle stage: G1/S) is 51.7 °C; in data set [4] (cell cycle stage: mitosis), 52.2 °C.

In the case of “MDSRYNSTAGIGDLNQLSAAIPATRVEVSVSCRNLLDRDTFSKSDPICVLYVQGVGNKEWREFGRTEVIDNTLNPDFVRKFILDYFFEERENLRFDLYDVDSKSPNLSKHDFLGQVFCTLGEIVGSQGSRLEKPIVGIPGKKCGTIILTAEELNCCRDAVLMQFCANKLDKKDFFGKSDPFLVFYRSNEDGSFTICHKTEVVKNTLNPVWQAFKISVRALCNGDYDRTIKVEVYDWDRDGSHDFIGEFTTSYRELSRGQSQFNVYEVVNPKKKGKKKKYTNSGTVTLLSFLVETEVSFLDYIKGGTQINFTVAIDFTASNGNPAQPTSLHYMNPYQLNAYGMALKAVGEIVQDYDSDKMFPALGFGAKLPPDGRISHEFALNGNPQNPYCDGIEGVMEAYYRSLKSVQLYGPTNFAPVINHVARYASSVKDGSQYFVLLIVTDGVISDMAQTKESIVNASKLPMSIIIVGVGPAEFDAMVELDGDDVRVSSRGKYAERDIVQFVPFRDYIDRSGNHILSMARLAKDVLAEIPEQFLSYMRARGIKPSPAPPPYTPPTHVLQTQI [CPNE8]”, the “solubility in G1/S (log2)” value in data set [1] is -1.4. Besides, the thermal stability score in data set [2] (setting [5]) turned out to be 1.74; in data set [2] (cell cycle stage: mitosis) it was 5.6. Further, the “solubility change mitosis (log2)” value in data set [3] was -0.135. For the same sequence, the results for the melting temperature in data set [4] (cell cycle stage: G1/S) and in data set [4] (cell cycle stage: mitosis) were 54.1 °C and 53 °C, respectively.

Turning to “MDTCGVGYVALGEAGPVGNMTVVDSPGQEVLNQLDVKTSSEMTSAEASVEMSLPTPLPGFEDSPDQRRLPPEQESLSRLEQPDLSSEMSKVSKPRASKPGRKRGGRTRKGPKRPQQPNPPSAPLVPGLLDQSNPLSTPMPKKRGRKSKAELLLLKLSKDLDRPESQSPKRPPEDFETPSGERPRRRAAQVALLYLQELAEELSTALPAPVSCPEGPKVSSPTKPKKIRQPAACPGGEEVDGAPRDEDFFLQVEAEDVEESEGPSESSSEPEPVVPRSTPRGSTSGKQKPHCRGMAPNGLPNHIMAPVWKCLHLTKDFREQKHSYWEFAEWIPLAWKWHLLSELEAAPYLPQEEKSPLFSVQREGLPEDGTLYRINRFSSITAHPERWDVSFFTGGPLWALDWCPVPEGAGASQYVALFSSPDMNETHPLSQLHSGPGLLQLWGLGTLQQESCPGNRAHFVYGIACDNGCIWDLKFCPSGAWELPGTPRKAPLLPRLGLLALACSDGKVLLFSLPHPEALLAQQPPDAVKPAIYKVQCVATLQVGSMQATDPSECGQCLSLAWMPTRPHQHLAAGYYNGMVVFWNLPTNSPLQRIRLSDGSLKLYPFQCFLAHDQAVRTLQWCKANSHFLVSAGSDRKIKFWDLRRPYEPINSIKRFLSTELAWLLPYNGVTVAQDNCYASYGLCGIHYIDAGYLGFKAYFTAPRKGTVWSLSGSDWLGTIAAGDISGELIAAILPDMALNPINVKRPVERRFPIYKADLIPYQDSPEGPDHSSASSGVPNPPKARTYTETVNHHYLLFQDTDLGSFHDLLRREPMLRMQEGEGHSQLCLDRLQLEAIHKVRFSPNLDSYGWLVSGGQSGLVRIHFVRGLASPLGHRMQLESRAHFNAMFQPSSPTRRPGFSPTSHRLLPTP [GTF3C2]”, the “solubility in G1/S (log2)” value in data set [1] is -0.18. Further, the thermal stability score in data set [2] (setting [5]) is 2.79; in data set [2] (cell cycle stage: mitosis), 6.24. The “solubility change mitosis (log2)” value in data set [3] amounted to 0.119. In addition, the melting temperature in data set [4] (cell cycle stage: G1/S) amounted to 46.5 °C; in data set [4] (cell cycle stage: mitosis) it was 49.5 °C.

In the case of “MDTDLYDEFGNYIGPELDSDEDDDELGRETKDLDEMDDDDDDDDVGDHDDDHPGMEVVLHEDKKYYPTAEEVYGPEVETIVQEEDTQPLTEPIIKPVKTKKFTLMEQTLPVTVYEMDFLADLMDNSELIRNVTLCGHLHHGKTCFVDCLIEQTHPEIRKRYDQDLCYTDILFTEQERGVGIKSTPVTVVLPDTKGKSYLFNIMDTPGHVNFSDEVTAGLRISDGVVLFIDAAEGVMLNTERLIKHAVQERLAVTVCINKIDRLILELKLPPTDAYYKLRHIVDEVNGLISMYSTDENLILSPLLGNVCFSSSQYSICFTLGSFAKIYADTFGDINYQEFAKRLWGDIYFNPKTRKFTKKAPTSSSQRSFVEFILEPLYKILAQVVGDVDTSLPRTLDELGIHLTKEELKLNIRPLLRLVCKKFFGEFTGFVDMCVQHIPSPKVGAKPKIEHTYTGGVDSDLGEAMSDCDPDGPLMCHTTKMYSTDDGVQFHAFGRVLSGTIHAGQPVKVLGENYTLEDEEDSQICTVGRLWISVARYHIEVNRVPAGNWVLIEGVDQPIVKTATITEPRGNEEAQIFRPLKFNTTSVIKIAVEPVNPSELPKMLDGLRKVNKSYPSLTTKVEESGEHVILGTGELYLDCVMHDLRKMYSEIDIKVADPVVTFCETVVETSSLKCFAETPNKKNKITMIAEPLEKGLAEDIENEVVQITWNRKKLGEFFQTKYDWDLLAARSIWAFGPDATGPNILVDDTLPSEVDKALLGSVKDSIVQGFQWGTREGPLCDELIRNVKFKILDAVVAQEPLHRGGGQIIPTARRVVYSAFLMATPRLMEPYYFVEVQAPADCVSAVYTVLARRRGHVTQDAPIPGSPLYTIKAFIPAIDSFGFETDLRTHTQGQAFSLSVFHHWQIVPGDPLDKSIVIRPLEPQPAPHLAREFMIKTRRRKGLSEDVSISKFFDDPMLLELAKQDVVLNYPM [EFTUD2]”, in data set [1], the “solubility in G1/S (log2)” value was -0.443. Besides, the values for the thermal stability score in data set [2] (setting [5]) and in data set [2] (cell cycle stage: mitosis) were -1.97 and -2.33, respectively. In addition, the “solubility change mitosis (log2)” value in data set [3] amounted to 0.215. Also, the figures for the melting temperature in data set [4] (cell cycle stage: G1/S) and in data set [4] (cell cycle stage: mitosis) were 57.4 °C and 56.2 °C, respectively.
